Laboratory results: US20210403601A1 (FAPON BIOTECH, published 2021)
Residue numbers refer to the chain shown, from its start.

B1: Mutation 1-1 (antibody, V domains shown)
VH: QVQLQQPGAELVKPGASVRLSCQTSVDTFTTYYIYWVKQRPGEGLEWIGGINPTSNPVFNEKFKSKATLTVDTSSSTAYMQLSSLTSVDSAVYYCTRSIVRRGYYFDYWGQGTALTVSS
VL: DIQMTQTTSSLSASLGDRVTISCRASQDINNYVNWYQQKPDGTIKLLIYYTSRLQSGVPSRFSGSGSGTDYSLTIANLEQEDIATYFCQQDDTIPITFGAGTKVELKR
notes: Mutation 1 background; CDRs built
B2: Mutation 1-2 (antibody, V domains shown)
VH: B1 VH with D27E, T30S, I51L, V100I
VL: B1 VL with N30Q, V33L, V58L, I96L
notes: as for B1
B3: Mutation 1-6 (antibody, V domains shown)
VH: B1 VH with T30S, I51V, I99L, V100L
VL: B1 VL with N30Q, Q55N, V58I, I94L, I96V
notes: as for B1
B4: Mutation 1-12 (antibody, V domains shown)
VH: B1 VH with T30S, I51V, I99V, V100L
VL: B1 VL with N30Q, Q55H, V58I, I94V, I96V
notes: as for B1
B5: Mutation 1-18 (antibody, V domains shown)
VH: B1 VH with I51V, V100L
VL: B1 VL with N30Q, V58I, I96V
notes: as for B1
B6: Mutation 1-27 (antibody, V domains shown)
VH: B1 VH with D27N, I51V, V100L
VL: B1 VL with V33L, V58I, I96V
notes: as for B1
B7: Mutation 1-28 (antibody, V domains shown)
VH: B1 VH with T30S
VL: B1 VL with N30Q, V33I, Q55H, V58I
notes: Mutation 1 background; CDRs built; also called Mutation 148
B8: Mutation 1-36 (antibody, V domains shown)
VH: B1 VH with D27E, T30S, V100L
VL: B1 VL with N30Q, V58I, I96L
notes: as for B1
B9: Mutation 1-42 (antibody, V domains shown)
VH: B1 VH with D27E, T30S, I99L, V100L
VL: B1 VL with N30Q, V58L, I94L, I96L
notes: as for B1
B10: Mutation 1-47 (antibody, V domains shown)
VH: B1 VH with I51V, V100I
VL: B1 VL with V33I, Q55N, V58L, I96V
notes: as for B1
B11: Mutation 1-48 (antibody, V domains shown)
VH: B1 VH with D27E, T30S, I99V, V100L
VL: B1 VL with N30Q, I94V, I96L
notes: as for B1
B12: Mutation 1-54 (antibody, V domains shown)
VH: B1 VH with D27N, I51L, V100L
VL: B1 VL with N30Q, Q55N, I96V
notes: as for B1
B13: Mutation 1-57 (antibody, V domains shown)
VH: B1 VH with D27E, T30S, I51V, I99V, V100L
VL: B1 VL with V33L, I94V, I96V
notes: as for B1
B14: Mutation 1-17 (antibody, V domains shown)
VH: QVQLQQPGAELVKPGASVRLSCQTSVNTFTTYYIYWVKQRPGEGLEWIGGLNPTSGGPVFNEKFKSKATLTVDTSSSTAYMQLSSLTSVDSAVYYCTRSLIRRGYYFDYWGQGTALTVSS
VL: B1 VL with V33I, Q55N, V58L, I94L, I96L
notes: as for B1
B15: Mutation 1-20 (antibody, V domains shown)
VH: B1 VH with D27E, I51L, V100I
VL: B1 VL with N30Q, V33L, Q55N, V58I, I96L
notes: as for B1
B16: Mutation 1-4 (antibody, V domains shown)
VH: B14 VH with T30S, L51I, L100V, I101V
VL: B1 VL with N30Q, V33I, Q55H, I94V
notes: as for B1
B17: Mutation 1-5 (antibody, V domains shown)
VH: B14 VH with L100V
VL: B1 VL with V33I, Q55H, V58L, I94V, I96L
notes: as for B1
B18: Mutation 1-10 (antibody, V domains shown)
VH: B14 VH with T30S, L51I, L100I, I101V
VL: B1 VL with N30Q, V33I
notes: as for B1
B19: Mutation 1-16 (antibody, V domains shown)
VH: B14 VH with T30S, L51I, I101V
VL: B1 VL with N30Q, V33I, Q55N, I94L
notes: as for B1
B20: Mutation 1-21 (antibody, V domains shown)
VH: B14 VH with T30S, L51V, L100V, I101L
VL: B1 VL with V33L, I94V, I96V
notes: as for B1
B21: Mutation 1-22 (antibody, V domains shown)
VH: B14 VH with L51I, L100V, I101V
VL: B1 VL with N30Q, V33I, Q55H, I94V
notes: as for B1
B22: Mutation 1-23 (antibody, V domains shown)
VH: B14 VH with N27D, T30S, L100V
VL: B1 VL with V33I, Q55N, I94V, I96L
notes: as for B1
B23: Mutation 1-30 (antibody, V domains shown)
VH: B14 VH with T30S, L51I, L100V, I101L
VL: B1 VL with N30Q, I94V, I96L
notes: Mutation 1 background; CDRs built; CDR-VL3 cell printed VL, read as V/L
B24: Mutation 1-31 (antibody, V domains shown)
VH: B14 VH with L100V, I101V
VL: B1 VL with Q55H, I94V
notes: as for B1
B25: Mutation 1-32 (antibody, V domains shown)
VH: B14 VH with N27D, T30S, L51V, L100V
VL: B1 VL with N30Q, V33L, Q55N, I94V, I96V
notes: as for B1
B26: Mutation 1-34 (antibody, V domains shown)
VH: B14 VH with N27D, T30S, I101V
VL: B1 VL with N30Q, V33I, Q55H, V58L, I94L
notes: as for B1

Target: T1, Taq DNA polymerase (Thermus aquaticus, UniProt P19821 1-832)
T1 construct: also called Taq enzyme; Taq DNA enzyme
T1 sequence (P19821 whole entry): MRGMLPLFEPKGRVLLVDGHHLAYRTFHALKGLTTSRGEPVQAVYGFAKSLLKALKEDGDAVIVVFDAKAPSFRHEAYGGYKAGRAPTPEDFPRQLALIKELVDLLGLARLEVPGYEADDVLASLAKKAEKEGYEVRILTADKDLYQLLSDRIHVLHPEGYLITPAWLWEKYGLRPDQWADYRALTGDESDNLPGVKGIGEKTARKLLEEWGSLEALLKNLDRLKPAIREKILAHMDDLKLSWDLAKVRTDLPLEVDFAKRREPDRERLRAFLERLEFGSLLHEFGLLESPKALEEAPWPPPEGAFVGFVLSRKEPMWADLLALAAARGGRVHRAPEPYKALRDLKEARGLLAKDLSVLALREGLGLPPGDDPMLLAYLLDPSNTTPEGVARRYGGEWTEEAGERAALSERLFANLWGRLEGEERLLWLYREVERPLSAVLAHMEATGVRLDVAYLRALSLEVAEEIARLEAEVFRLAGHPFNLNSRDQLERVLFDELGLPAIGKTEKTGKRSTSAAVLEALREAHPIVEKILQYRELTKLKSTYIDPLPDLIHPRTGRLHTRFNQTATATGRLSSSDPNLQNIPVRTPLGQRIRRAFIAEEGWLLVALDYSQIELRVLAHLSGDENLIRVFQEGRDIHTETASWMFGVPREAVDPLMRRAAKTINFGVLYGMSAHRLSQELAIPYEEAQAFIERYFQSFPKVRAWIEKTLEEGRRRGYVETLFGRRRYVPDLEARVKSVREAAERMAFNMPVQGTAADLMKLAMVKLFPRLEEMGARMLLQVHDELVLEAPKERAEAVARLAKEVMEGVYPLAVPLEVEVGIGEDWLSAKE
Experiment: AMC sensor, antibody immobilised

Binder	Kd [nM]	koff [s⁻¹]	kon [M⁻¹ s⁻¹]
B1	0.491	1.58e-05	32200
B2	0.285	1.42e-05	49700
B3	0.808	3.41e-05	42100
B4	0.022	2.05e-06	93400
B5	0.677	4.5e-05	66400
B6	0.028	2.03e-06	72400
B7	0.402	2.61e-05	65000
B8	0.768	3.85e-05	50200
B9	0.803	3.75e-05	46700
B10	0.739	4.67e-05	63200
B11	0.384	3.72e-05	97900
B12	0.273	1.01e-05	37200
B13	0.362	2.49e-05	69000
B14	0.398	1.36e-05	34000
B15	0.728	6.43e-05	88300
B16	0.719	2.75e-05	38200
B17	0.873	7.78e-05	89100
B18	0.384	3.76e-05	98000
B19	0.223	1.45e-05	65100
B20	0.0664	5.96e-06	89800
B21	0.384	3.7e-05	97200
B22	0.913	6.41e-05	70200
B23	0.911	4.49e-05	49300
B24	0.85	5.38e-05	63300
B25	0.281	8.8e-06	31300
B26	0.987	6.17e-05	62600
